Assay results reported in patent US20140141019A1 (INSERM INSTITUT NATIONALDE LA SENTE ET DE LA RECHERCHE …, published 2014).
Substitutions are numbered along the chain they refer to. Names may count otherwise. Ends that are not written are not given here.

B1: mAb H3A-32 (purified human IgG) (antibody, V domains shown)
VH: EVQLVESGGGLVQPGGSLRLSCAASGFTFDDYAMHWVRQAPGKGLEWVSGISWNSGSIGYADSVKGRFTISRDNAKNSLYLQMNSLRAEDTAVYYCAREGQWPNYGMDVWGQGTTVTVSS
VL: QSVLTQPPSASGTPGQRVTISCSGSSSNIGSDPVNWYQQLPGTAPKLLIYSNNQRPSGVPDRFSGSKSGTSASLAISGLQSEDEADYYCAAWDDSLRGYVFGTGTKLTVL
notes: expressed as human IgG1 in transiently transfected HEK 293 cells, protein A purified
B2: mAb H4B-121 (purified human IgG) (antibody, V domains shown)
VH: B1 VH with G16R
VL: QSVLTQPPSVSAAPGQKVTISCPGSSSNIGNNYVSWYQQLPGTAPKLLIYDNNERPSGIPDRFSGSTSGTSATLDITDLQAEDEATYYCGAWDNTLGVYVLGTGTQLTVL
notes: expressed as human IgG1 in HEK 293 cells
B3: mAb H3A-81 (purified human IgG) (antibody, V domains shown)
VH: B1 VH
VL: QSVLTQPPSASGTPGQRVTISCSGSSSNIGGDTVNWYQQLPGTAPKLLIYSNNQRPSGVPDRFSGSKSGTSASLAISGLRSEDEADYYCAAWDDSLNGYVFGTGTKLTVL
notes: as for B2
B4: mAb H4B-05 (purified human IgG) (antibody, V domains shown)
VH: B1 VH with G16R
VL: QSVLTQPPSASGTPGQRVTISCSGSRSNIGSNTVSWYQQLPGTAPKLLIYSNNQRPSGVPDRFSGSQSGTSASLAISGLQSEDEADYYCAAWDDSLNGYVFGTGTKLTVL
notes: as for B2
B5: mAb H3A-76 (purified human IgG) (antibody, V domains shown)
VH: B1 VH with G16R, N77D
VL: QSVLTQPPSASGTPGQRVTISCSGSSSNIGSNSLNWYQQLPGTAPKLLIYSNNQRPPGVPDRFSGSRSGSSASLAISGLQSGDEGDYYCAAWDDSLKGYVFGTGTQLTVL
notes: as for B2
B6: U1-59 (Amgen/U3 Pharma-Daiichi Sankyo) (antibody, V domains shown)
VH: QVQLQQWGAGLLKPSETLSLTCAVYGGSFSGYYWSWIRQPPGKGLEWIGEINHSGSTNYNPSLKSRVTISVETSKNQFSLKLSSVTAADTAVYYCARDKWTWYFDLWGRGTLVTVSS
VL: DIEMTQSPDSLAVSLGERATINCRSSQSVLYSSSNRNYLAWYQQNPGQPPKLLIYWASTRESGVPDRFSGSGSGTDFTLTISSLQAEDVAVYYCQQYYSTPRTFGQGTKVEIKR
B7: Ab#6 (Merrimack Pharmaceuticals) (antibody, V domains shown)
VH: EVQLLESGGGLVQPGGSLRLSCAASGFTFSHYVMAWVRQAPGKGLEWVSSISSSGGWTLYADSVKGRFTISRDNSKNTLYLQMNSLRAEDTAVYYCTRGLKMATIFDYWGQGTLVTVSS
VL: QSALTQPASVSGSPGQSITISCTGTSSDVGSYNVVSWYQQHPGKAPKLIIYEVSQRPSGVSNRFSGSKSGNTASLTISGLQTEDEADYYCCSYAGSSIFVIFGGGTKVTVL
B8: Fab H4B-121 (Fab, V domains shown)
VH: B1 VH with G16R
VL: B2 VL
notes: Fab made in E. coli periplasm with a V5 tag and a C-terminal 6xHis tag
B9: Fab H3A-32 (Fab, V domains shown)
VH: B1 VH
VL: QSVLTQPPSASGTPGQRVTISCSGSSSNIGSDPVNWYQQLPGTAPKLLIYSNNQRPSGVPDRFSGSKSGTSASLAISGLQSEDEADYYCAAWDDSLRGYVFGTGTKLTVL
notes: Fab made in E. coli periplasm with a V5 tag and a C-terminal 6xHis tag; also called H3A-32 (Fab format)
B10: Fab H3A-76 (Fab, V domains shown)
VH: B1 VH with G16R, N77D
VL: B5 VL
notes: Fab made in E. coli periplasm with a V5 tag and a C-terminal 6xHis tag; also called H3A-76 (Fab format)
B11: Fab H3A-81 (Fab, V domains shown)
VH: B1 VH
VL: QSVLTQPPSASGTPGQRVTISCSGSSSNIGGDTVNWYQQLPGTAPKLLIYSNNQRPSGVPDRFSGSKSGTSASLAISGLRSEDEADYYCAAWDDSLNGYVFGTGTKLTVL
notes: Fab made in E. coli periplasm with a V5 tag and a C-terminal 6xHis tag; also called H3A-81 (Fab format)
B12: Fab H4B-05 (Fab, V domains shown)
VH: B1 VH with G16R
VL: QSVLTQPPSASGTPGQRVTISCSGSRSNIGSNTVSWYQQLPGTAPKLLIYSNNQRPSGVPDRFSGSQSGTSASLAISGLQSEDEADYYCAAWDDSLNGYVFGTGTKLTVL
notes: Fab made in E. coli periplasm with a V5 tag and a C-terminal 6xHis tag; also called H4B-05 (Fab format)

The binders below were run against T1, mouse HER3-Fc (recombinant mouse extracellular domain ErbB3/HER3 Fc chimera, R&D Systems) (mouse, UniProt Q61526 20-641) (assay: ELISA, coated mouse HER3-Fc 250 ng/ml).
T1 construct: extracellular domain; Bought protein; also called murine HER3; Fc part of the bought chimera not given
T1 sequence (Q61526 20-641, change not shown): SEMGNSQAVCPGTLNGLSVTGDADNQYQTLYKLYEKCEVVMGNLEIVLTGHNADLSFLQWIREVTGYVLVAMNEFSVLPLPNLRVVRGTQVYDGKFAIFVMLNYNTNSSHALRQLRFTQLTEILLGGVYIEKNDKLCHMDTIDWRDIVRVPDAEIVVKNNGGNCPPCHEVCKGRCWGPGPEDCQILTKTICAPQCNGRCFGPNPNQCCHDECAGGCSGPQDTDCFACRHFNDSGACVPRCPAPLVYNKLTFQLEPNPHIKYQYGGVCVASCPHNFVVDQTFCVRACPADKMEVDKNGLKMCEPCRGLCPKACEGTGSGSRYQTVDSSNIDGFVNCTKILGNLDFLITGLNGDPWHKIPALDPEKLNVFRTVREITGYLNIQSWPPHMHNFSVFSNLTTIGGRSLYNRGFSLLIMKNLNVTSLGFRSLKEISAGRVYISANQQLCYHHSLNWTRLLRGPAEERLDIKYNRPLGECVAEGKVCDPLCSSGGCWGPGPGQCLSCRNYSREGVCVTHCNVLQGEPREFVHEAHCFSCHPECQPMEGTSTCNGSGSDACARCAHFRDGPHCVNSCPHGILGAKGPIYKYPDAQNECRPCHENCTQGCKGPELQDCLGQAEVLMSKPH
B1: binds.
B2: binds.
B3: binds.
B4: binds.
B5: binds.

Each binder was assayed against T2, human HER4-Fc (recombinant human extracellular domain ErbB4/HER4 Fc chimera, R&D Systems) (human, UniProt Q15303 26-651) (assay: ELISA, coated HER4-Fc 50 ng).
T2 construct: extracellular domain; Bought protein; Fc part of the bought chimera not given
T2 sequence (looked up): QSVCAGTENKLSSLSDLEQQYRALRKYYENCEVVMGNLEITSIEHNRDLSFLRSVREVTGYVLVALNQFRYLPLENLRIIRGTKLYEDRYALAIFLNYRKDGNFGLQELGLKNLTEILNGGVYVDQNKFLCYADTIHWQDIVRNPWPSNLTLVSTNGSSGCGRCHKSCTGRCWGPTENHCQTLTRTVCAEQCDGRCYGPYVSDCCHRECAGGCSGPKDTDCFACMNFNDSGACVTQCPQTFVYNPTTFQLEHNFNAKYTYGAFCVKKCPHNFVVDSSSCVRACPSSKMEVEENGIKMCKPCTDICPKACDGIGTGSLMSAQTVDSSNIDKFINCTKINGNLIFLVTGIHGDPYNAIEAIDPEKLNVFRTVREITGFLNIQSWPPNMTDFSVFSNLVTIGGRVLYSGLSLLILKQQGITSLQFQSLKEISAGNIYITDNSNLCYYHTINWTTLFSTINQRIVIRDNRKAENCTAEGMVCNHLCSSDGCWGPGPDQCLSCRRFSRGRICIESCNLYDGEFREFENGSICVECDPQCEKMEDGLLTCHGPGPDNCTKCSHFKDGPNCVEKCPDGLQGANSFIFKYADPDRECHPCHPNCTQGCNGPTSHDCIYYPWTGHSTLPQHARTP
Excerpt: The bound IgG were detected by using HRP-F(ab′) 2 goat anti human IgG F(ab′)2 specific (Interchim).
B1: no binding (tested: 0.5 µg/ml).
B2: no binding (tested: 0.5 µg/ml).
B3: no binding (tested: 0.5 µg/ml).
B4: no binding (tested: 0.5 µg/ml).
B5: no binding (tested: 0.5 µg/ml).

The binders below were run against T3, HER2 on transfected NIH 3T3 cells (human, UniProt P04626 23-1255) (assay: flow cytometry, HER2-transfected NIH-3T3 cells).
T3 construct: whole, on cells
Method: (§1) After three washes in PBS-BSA 0.1%, cells were incubated with the fluorescein-conjugated anti-human IgG-Fragment Fc specific (Sigma) at 4° C. in the dark for 45 min. Cells were then washed three times and suspended in PBS for analysis using an EPICS flow cytometer (Beckman-Coulter, Fullerton, Calif.).
In the case of B6, the geometric mean is reported as 0.42.
In the case of B1, the geometric mean is reported as 0.44.
Work on B2 yielded a geometric mean of 0.56.
In the case of B3, the geometric mean is reported as 0.5.
B4 gave a geometric mean of 0.41.
B5 showed a geometric mean of 0.52.
Work on B7 yielded a geometric mean of 0.35.

The binders below were run against T4, EGFR on transfected NIH 3T3 cells (human, UniProt P00533 25-1210) (assay: flow cytometry, transfected NIH 3T3 cells).
T4 construct: whole, on cells
Method: as §1
B1: no binding.
B2: no binding.
B3: no binding.
B4: no binding.
B5: no binding.

Each binder was assayed against T5, EGFR/HER4 on transfected NIH 3T3 cells (human, UniProt P00533 25-1210; Q15303 26-1308) (assay: flow cytometry, transfected NIH 3T3 cells).
T5 construct: whole, on cells; NIH 3T3 cells transfected with both EGFR and HER4
Method: as §1
B1: no binding.
B2: no binding.
B3: no binding.
B4: no binding.
B5: no binding.

What follows are binders tested against T3, HER2 on transfected NIH 3T3 cells (assay: flow cytometry, transfected NIH 3T3 cells).
Method: as §1
B1: no binding.
B2: no binding.
B3: no binding.
B4: no binding.
B5: no binding.

These binders were tested against T4, EGFR on transfected NIH 3T3 cells (assay: flow cytometry, EGFR-transfected NIH-3T3 cells).
Method: as §1
In the case of B6, the geometric mean is reported as 0.25.
With B1 the geometric mean was 0.26.
With B2 the geometric mean was 0.33.
B3 was tested, and the geometric mean was 0.26.
In the case of B4, the geometric mean is reported as 0.28.
B5 showed a geometric mean of 0.24.
Binder B7 has a geometric mean of 0.21.

Target: T6, HER3 peptide 343-357 DFLITGLNGDPWHKI (human, also: cellulose-bound)
T6 construct: SPOT peptide
T6 peptide: Ac-DFLITGLNGDPWHKI
Assay: SPOT peptide array, antibody at 1 µg/ml
B2: binds.

What follows are binders tested against T7, HER2/HER3 complex on transfected NIH 3T3 cells (human, UniProt P04626 23-1255; P21860 20-1342) (assay: flow cytometry, HER2/HER3-transfected NIH-3T3 cells).
T7 construct: whole, on cells; NIH 3T3 cells transfected with both HER2 and HER3; also called HER2-HER3 heterodimer
Method: as §1
B6 gave a geometric mean of 15.5.
With B1 the geometric mean was 68.8.
With B2 the geometric mean was 70.4.
In the case of B3, the geometric mean is reported as 68.5.
B4 was tested, and the geometric mean was 13.3.
With B5 the geometric mean was 66.6.
In the case of B7, the geometric mean is reported as 14.1.

The binders below were run against T2, human HER4-Fc (recombinant human …) (assay: ELISA, coated HER4-Fc 250 ng, anti-V5-HRP).
Method: The purified human Fabs at various concentrations were incubated for 2 hours at 37° C. in coated wells at 250 ng HER3-Fc (or HER4-Fc). The bound Fabs were detected by using HRP-labeled anti-V5 antibody (Invitrogen). Revelation was done at 450 nm in the presence of TMB (Sigma). The Fabs were tested simultaneously for binding on HER3-Fc, HER4-Fc and on Bovine serum Albumin as control.
B8: no binding.
B9: no binding.
B10: no binding.
B11: no binding.
B12: no binding.

What follows are binders tested against T5, EGFR/HER4 on transfected NIH 3T3 cells (assay: flow cytometry, EGFR/HER4-transfected NIH-3T3 cells).
Method: as §1
B6 was tested, and the geometric mean was 0.59.
B1 was tested, and the geometric mean was 0.53.
Binder B2 has a geometric mean of 0.67.
Work on B3 yielded a geometric mean of 0.53.
In the case of B4, the geometric mean is reported as 0.52.
For B5, the geometric mean was 0.53.
With B7 the geometric mean was 0.51.

Each binder was assayed against T8, HER3 receptor on cells (HER3-transfected NIH 3T3 fibroblasts; SKBR3 cells; BxPC3 cells) (human, UniProt P21860 20-1342) (assay: flow cytometry, HER3-transfected NIH-3T3 cells).
T8 construct: whole, on cells; also called ErbB3
Method: as §1
B6 gave a geometric mean of 9.32.
In the case of B1, the geometric mean is reported as 10.5.
B2 gave a geometric mean of 12.3.
Binder B3 has a geometric mean of 10.6.
B4 showed a geometric mean of 7.85.
Binder B5 has a geometric mean of 11.5.
Work on B7 yielded a geometric mean of 7.77.
